In paper PMC4956467 one finds Kd data, which are given here for 3 molecules.

Common to all, as to assay: BLI
In general terms: BLI is a label-free optical method that tracks binding on a fibre tip over time.

Series [1] has as its target HIV-1 viral infectivity factor (Vif), full length, refolded, biotinylated (HIV-1) (UniProt P12504).
The target of series [2] is A3Fc-CD2 W310A (human, UniProt Q9HC16 197-221+Q8IUX4:220-373, W310A;internal_change).
The target of series [3] is A3Fc-CD2 Y314A (human, UniProt Q9HC16 197-221+Q8IUX4:220-373, Y314A;internal_change).
For series [4], the target named is A3Fc-CD2 Y307A (human, UniProt Q9HC16 197-221+Q8IUX4:220-373, Y307A;internal_change).
Series [5] concerns the target A3Fc-CD2 F309A (human, UniProt Q9HC16 197-221+Q8IUX4:220-373, F309A;internal_change).
Series [6] has as its target A3Fc-CD2 Y308A (human, UniProt Q9HC16 197-221+Q8IUX4:220-373, Y308A;internal_change).
Series [7] concerns the target A3Fc-CD2 D313A (human, UniProt Q9HC16 197-221+Q8IUX4:220-373, D313A;internal_change).

Usually Kd stands for the free concentration of one partner at which half of the binding sites on the other are occupied at equilibrium, for simple one-to-one binding.

“chimeric A3F C-terminal domain (A3Fc-CD2), wild type (from UniProt Q9HC16 197-221; Q8IUX4 218-373) (domain or fragment)” gave a Kd in series [1] of 1.1 µM.

On to “A3Fc-CD2 L263A (from UniProt Q9HC16 197-221; Q8IUX4 218-373) (domain or fragment)”, for which the Kd in series [1] was 1.1 µM.

Regarding TCCCTCAGACCCTTTTAGTCAGTGTGGAAAATCTCTAGCAGT (ssDNA) [42-mer ssDNA, viral U5 end of 3'-LTR], the Kd in series [2] turned out to be 27 µM; in series [3], 68 µM; in series [4], 410 µM; in series [5], 31 µM; in series [6], 18 µM; in series [7], 220 µM.
